# According to patent US20250051463A1, “CD123 ANTIBODY-DRUG CONJUGATES AND METHODS OF USING THE SAME” (ASTRAZENECA AB, priority 2023, published 2025):
# B1: pivekimab sunirine (conjugate, chains of the INN, looked up)
# VH: QVQLVQSGAEVKKPGASVKVSCKASGYIFTSSIMHWVRQAPGQGLEWIGYIKPYNDGTKYNEKFKGRATLTSDRSTSTAYMELSSLRSEDTAVYYCAREGGNDYYDTMDYWGQGTLVTVSS
# VL: EIQMTQSPSSLSASVGDRVTITCRASQDINSYLSWFQQKPGKAPKTLIYRVNRLVDGVPSRFSGSGSGNDYTLTISSLQPEDFATYYCLQYDAFPYTFGQGTKVEIK
# modifications: sunirine payload
# Assays:
# [1] = system: RPMI-8226; assay: CellTiter-Glo cell viability, 3 days; assay type: cell-based
# Experimental: (§1) The CD123-expressing endothelial cell lines HUVEC and HPAEC and control cell lines RPMI-8226 (high CD123 expressing) and K562 (low expressing or negative for CD123) were cultured and co-incubated with Comparator-1 ADC, NIP228-SG3932 (isotype control for HT12-GL-SG3932) HT12-GL-SG3932, or CD123 mAb (HT12-GL) for 3 days at concentrations ranging from 0.0017 to 520 μg/mL for CD123 mAb, HT12-GL-SG3932, or NIP228-SG3932) or 0.0010 to 320 μg/mL for IMGN-IGN). Cell viability was assessed by CellTiter-Glo Cell Viability Assay and IC50 for viability was calculated (when possible) for each compound for each cell line. Expression of CD123 was assessed by western blot surface expression or by flow cytometry (FIG. 9C-9H).
# [2] = system: HPAEC; assay: CellTiter-Glo cell viability, 3 days; assay type: cell-based
# Experimental: as §1
# [3] = system: HUVEC; assay: CellTiter-Glo cell viability, 3 days; assay type: cell-based
# Experimental: as §1
# [4] = system: K562; assay: CellTiter-Glo cell viability, 3 days; assay type: cell-based
# Experimental: as §1
# [5] = system: subcutaneous EOL-1 tumors; assay: EOL-1 subcutaneous xenograft study; assay type: in vivo, Nude mice; details: 0.24 mg/kg at a single dose
# Experimental: EOL-1 cells that express about 2,000 CD123/IL3Rα per cell were maintained in the RPMI-1640 medium containing 10% heat-inactivated FBS and were cultured in a humidified atmosphere of 5% CO2 and at a temperature of 37° C. On the day of implantation, cells were spun down at 1500 rpm for 5 minutes, counted, and resuspended to a final concentration of 50×10^6 cells/mL in PBS. Female Nude mice were each injected subcutaneously in the right flank with 10×10^6 cells in 200 μL volume. When average tumor volume reached ˜150-250 mm^3 on Day 9, mice were randomized into treatment groups using the Matched Distribution method built into the Study Director software.
# Test and control ADC were diluted from a stock solution with vehicle buffer (20 mM histidine, 240 mM sucrose, 0.02% Polysorbate 80, pH 6.0) and were administered as a single intravenous (IV) injection according to body weight.
# Tumor volume and body weight were measured twice weekly from Day 6 to Day 60 after EOL-1 implant. Tumors were measured by caliper and the volumes of tumors were calculated using the following formula:
# Tumor Volume=[length (mm)×width (mm)^2]/2; where the length and the width are the longest and shortest diameters of the tumor respectively.
molecule,measurement,setting,value
B1,Cytotoxicity (Viability IC50) RPMI-8226,[1],53.9 µg/mL
same,Cytotoxicity (Viability IC50) HPAEC,[2],6.0 µg/mL
same,Cytotoxicity (Viability IC50) HUVEC,[3],6.9 µg/mL
same,Cytotoxicity (Viability IC50) K562,[4],10.3 µg/mL
same,anti-tumor effect (tumor volume),[5],complete tumor regression
